This note sets out measurements from PMC7939443.

Series [1] deals with human poly(C)-binding protein 2 (PCBP2), full length, wild type (human) (UniProt Q15366). As to the kind of experiment: SAXS.
Series [2] has the same target. The experiment in a line: AUC.
The target in series [3] is T1, nsp1β WT;PCBP2 WT (PRRSV isolate SD01-08 (Betaarterivirus …, UniProt Q04561;Q15366 181-385;1-365, |)). As to the kind of experiment: EMSA; large molar excess of both proteins. As to conditions: protein: recombinant;recombinant; tags: GST tag removed with HRV 3C protease;N-terminal polyHis; copies: 1;1; single strand. On the technique in general: In EMSA bound probe runs differently from free probe, usually more slowly.

Series [4] concerns the target T2, PCBP2 WT (Homo sapiens, UniProt Q15366 1-365). As to the kind of experiment: EMSA; seen from 8-fold, strong at 20-fold molar excess. As to conditions: protein: recombinant; tags: N-terminal polyHis; single strand.
The target in another series is T3, nsp1β WT (PRRSV isolate SD01-08 (Betaarterivirus …, UniProt Q04561 181-385)).
T3 sequence: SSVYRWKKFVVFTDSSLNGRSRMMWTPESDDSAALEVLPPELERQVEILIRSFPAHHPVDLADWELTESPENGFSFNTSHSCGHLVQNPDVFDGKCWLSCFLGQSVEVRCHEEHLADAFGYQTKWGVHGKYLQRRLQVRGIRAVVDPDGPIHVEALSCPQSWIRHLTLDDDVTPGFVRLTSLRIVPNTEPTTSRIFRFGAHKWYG
As to the kind of experiment: EMSA; up to 20-fold molar excess. The following applies: protein: recombinant; tags: GST tag removed with HRV 3C protease; single strand.

Series [5] has as its target T1, nsp1β WT;PCBP2 WT. As to the kind of experiment: EMSA; supershift relative to PCBP2 alone; complex also purified by SEC. The following applies: protein: recombinant;recombinant; tags: GST tag removed with HRV 3C protease;N-terminal polyHis; copies: 1;1; single strand.
The target of series [6] is T2, PCBP2 WT. The experiment in a line: EMSA; no appreciable binding at 28-fold molar excess. As to conditions: protein: recombinant; tags: N-terminal polyHis; single strand.
Series [7] concerns the target T1, nsp1β WT;PCBP2 WT. As to the kind of experiment: EMSA. The following applies: protein: recombinant;recombinant; tags: GST tag removed with HRV 3C protease;N-terminal polyHis; copies: 1;1; single strand.

T1 sequence (Q15366 whole entry, one chain of several): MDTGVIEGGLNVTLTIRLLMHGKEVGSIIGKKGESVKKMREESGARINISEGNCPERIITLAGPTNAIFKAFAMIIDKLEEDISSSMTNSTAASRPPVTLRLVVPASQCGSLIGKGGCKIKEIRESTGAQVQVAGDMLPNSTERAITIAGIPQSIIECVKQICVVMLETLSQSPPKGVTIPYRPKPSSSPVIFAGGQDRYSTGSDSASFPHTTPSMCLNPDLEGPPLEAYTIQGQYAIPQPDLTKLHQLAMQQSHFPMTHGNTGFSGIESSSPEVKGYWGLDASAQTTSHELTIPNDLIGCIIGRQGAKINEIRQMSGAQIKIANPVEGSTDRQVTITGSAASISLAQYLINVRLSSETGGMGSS
T2 sequence (Q15366 whole entry): as the sequence (Q15366 whole entry, one chain of several) above
Chain of human poly(C)-binding protein 2 (PCBP2), full length, wild type (human) (Q15366 whole entry): as the sequence (Q15366 whole entry, one chain of several) above

A word on the stoichiometry N: it is a count of units in the complex or per binding partner. With “PRRSV nonstructural protein 1β (nsp1β), isolate SD01-08, wild type (natural protein)”, the stoichiometry N in series [1] and in series [2] was 1 in each case.

B1: 34-nt CC2 ssDNA (ssDNA)
DNA: GGGTTTTTGAAGTTTACTGAAATATGGCAGCTTT
As to B1, in the series with nsp1β WT;PCBP2 WT [3], the binding result was “no binding”.

B2: 34-nt PRRSV ssDNA (ssDNA)
DNA: GGGTTTTTGAAGTTTACTCCCATCTCCCAGCTTT
Consider B2, for which the binding result with PCBP2 WT [4] is reported as “binds”; in the series with nsp1β WT, “no binding”; with nsp1β WT;PCBP2 WT [5], “binds”.

B3: 34-nt PRRSV ssRNA (ssRNA)
RNA: GGGUUUUUGAAGUUUACUCCCAUCUCCCAGCUUU
On to B3, for which the binding result is reported as “no binding” with PCBP2 WT [6] and “binds” with nsp1β WT;PCBP2 WT [7].
